From US20200148774A1 (Genentech, published 2020)
Values joined by “and” are separate entries in the source; they are usually repeats but may differ in a detail not shown here. Equal values may be shown once.

T1: recombinant human CLL-1 extracellular domain (ECD, amino acids 65-265) fused to an N-terminal Flag (human, UniProt Q5QGZ9 65-265)
T1 construct: The construct and the K244Q SNP are stated for the immunogen; they are not written as a piece; also called huCLL-1-Flag; huCLL-1
T1 chain: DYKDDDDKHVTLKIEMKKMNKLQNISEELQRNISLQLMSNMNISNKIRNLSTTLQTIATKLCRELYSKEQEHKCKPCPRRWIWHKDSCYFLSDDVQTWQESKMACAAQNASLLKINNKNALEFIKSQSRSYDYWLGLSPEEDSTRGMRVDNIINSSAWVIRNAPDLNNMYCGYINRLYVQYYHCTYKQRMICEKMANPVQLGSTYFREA

T2: recombinant cynomolgus CLL-1 extracellular domain (ECD, amino acids 65-265) fused to an N-terminal Flag (cynomolgus monkey)
T2 construct: Construct stated for the immunogen; also called CynoCLL-1 Flag; cynoCLL-1
T2 chain: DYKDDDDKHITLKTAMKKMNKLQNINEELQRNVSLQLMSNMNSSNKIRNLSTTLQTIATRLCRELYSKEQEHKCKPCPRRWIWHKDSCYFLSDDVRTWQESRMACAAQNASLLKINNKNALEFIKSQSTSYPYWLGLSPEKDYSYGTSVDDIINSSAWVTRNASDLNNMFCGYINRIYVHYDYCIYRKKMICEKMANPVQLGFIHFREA

T3: human CLL-1 on cells (endogenous on HL-60, EOL-1 and other AML cell lines and CD14+ monocytes); recombinant on … (human, UniProt Q5QGZ9 1-265)
T3 sequence: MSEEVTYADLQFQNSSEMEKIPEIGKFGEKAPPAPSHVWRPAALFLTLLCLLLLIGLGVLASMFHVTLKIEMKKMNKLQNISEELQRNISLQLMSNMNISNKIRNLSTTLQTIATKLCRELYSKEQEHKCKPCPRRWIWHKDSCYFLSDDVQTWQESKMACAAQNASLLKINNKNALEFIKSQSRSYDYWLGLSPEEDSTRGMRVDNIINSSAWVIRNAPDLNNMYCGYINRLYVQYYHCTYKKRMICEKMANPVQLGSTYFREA


Legend:
[1] = target: T1, recombinant human CLL-1 extracellular …; assay: SPR (Biacore), chimeric IgG captured by anti-human IgG, CLL-1 as analyte
Method: (§1) The chimeric anti-CLL-1 human IgG were captured by mouse anti-human IgG coated on the CM5 sensor chip. […] Association rates (kon) and dissociation rates (koff) were calculated using a simple one-to-one Langmuir binding model. The equilibrium dissociation constant (KD) was calculated as the ratio koff/kon.

[2] = target: T2, recombinant cynomolgus CLL-1 …; assay: as above
Method: as §1

[3] = target: T1, recombinant human CLL-1 extracellular …; assay: affinity column of the TDB summary table (rounded Biacore KD of the second the 8th table / the 4th table tables)
[4] = target: T2, recombinant cynomolgus CLL-1 …; assay: as above
[5] = target: T3, human CLL-1 on cells (endogenous on …); assay: cell-based or functional assay
[6] = target: T3, human CLL-1 on cells (endogenous on …); assay: cell-based or functional assay; remark: listed apart in the source
[7] = target: T3, human CLL-1 on cells (endogenous on …); assay: cell-based or functional assay; remark: listed apart in the source
[8] = target: T3, human CLL-1 on cells (endogenous on …); assay: Scatchard, EOL-1 cells
[9] = target: T3, human CLL-1 on cells (endogenous on …); assay: Scatchard, HL-60 cells
Method: Competition assay mixtures of 50 μL volume containing a fixed concentration of [1¹²⁵] labeled antibody and decreasing concentrations of serially diluted, unlabeled antibody were placed into 96-well plates. HEK293AD cells stably expressing recombinant hu or cynoCLL-1 or HL-60 tumor cells expressing endogenous CLL-1 were cultured in growth media at 37° C. in 5% CO₂. Cells were detached from the flask using Sigma Cell Dissociation Solution and were washed with binding buffer, which consisted of Dulbecco's Modified Eagle Medium (DMEM) with 1% bovine serum albumin (BSA), […] and 0.1% sodium azide. The washed cells were added to the 96 well plates at a density of 100,000 cells in 0.2 mL of binding buffer. […] The final concentration of the unlabeled antibody in the competition assay ranged from 1000 nM through ten 2-fold dilution steps to a 0 nM buffer-only assay. Competition assays were carried out in triplicate. Competition assays were incubated for 2 hours at room temperature. […] The filters were counted on a Wallac Wizard 1470 gamma counter (PerkinElmer Life and Analytical Sciences Inc.; Wellesley, Mass.). The binding data was evaluated using NewLigand software (Genentech), which uses the fitting algorithm of Munson and Robard to determine the binding affinity of the antibody (Munson and Robard 1980).

[10] = target: T3, human CLL-1 on cells (endogenous on …); assay: Scatchard, 293AD/huCLL-1 cells
Method: Competition assay mixtures of 50 μL volume containing a fixed concentration of [1¹²⁵] labeled antibody and decreasing concentrations of serially diluted, unlabeled antibody were placed into 96-well plates. HEK293AD cells stably expressing recombinant hu or cynoCLL-1 or HL-60 tumor cells expressing endogenous CLL-1 were cultured in growth media at 37° C. in 5% CO₂. Cells were detached from the flask using Sigma Cell Dissociation Solution and were washed with binding buffer, which consisted of Dulbecco's Modified Eagle Medium (DMEM) with 1% bovine serum albumin (BSA), […] and 0.1% sodium azide. The washed cells were added to the 96 well plates at a density of 100,000 cells in 0.2 mL of binding buffer. […] The final concentration of the unlabeled antibody in the competition assay ranged from 1000 nM through ten 2-fold dilution steps to a 0 nM buffer-only assay. Competition assays were carried out in triplicate. Competition assays were incubated for 2 hours at room temperature. After the 2-hour incubation, the competition assays were transferred to a Millipore Multiscreen filter plate (Billerica, Mass.) and washed 4 times with binding buffer to separate the free from bound [I¹²⁵] labeled antibody. The filters were counted on a Wallac Wizard 1470 gamma counter (PerkinElmer Life and Analytical Sciences Inc.; Wellesley, Mass.). The binding data was evaluated using NewLigand software (Genentech), which uses the fitting algorithm of Munson and Robard to determine the binding affinity of the antibody (Munson and Robard 1980).

[11] = target: T1, recombinant human CLL-1 extracellular …; assay: SPR (Biacore T200), IgG captured by anti-human Fc, CLL-1 as analyte
[12] = target: T2, recombinant cynomolgus CLL-1 …; assay: as above
[13] = target: T1, recombinant human CLL-1 extracellular …; assay: as above
[14] = target: T2, recombinant cynomolgus CLL-1 …; assay: as above

Row | Binder | Kd [1] [nM] | koff [1] [s⁻¹] | kon [1] [M⁻¹ s⁻¹] | Kd [2] [nM] | koff [2] [s⁻¹] | kon [2] [M⁻¹ s⁻¹] | Kd [3] [nM] | Kd [4] [nM] | Kd [13] [nM] | koff [13] [s⁻¹] | kon [13] [M⁻¹ s⁻¹] | Kd [14] [nM] | koff [14] [s⁻¹] | kon [14] [M⁻¹ s⁻¹] | also measured
1 | ch20B1 (antibody, V domains shown, chimeric version of m20B1, human IgG; also called chimeric 20B1; 2061 [sic]) VH: EVQLQQSGPELVKPGALVKISCKASGYTFTSYDINWLKQRPGQGLEWIGWIYPGDGTTEYNERFKGKATLTADKSSSTAYLQLSSLTSENSAVYFCARSYDYDYAMDYWGQGTSVTVSS VL: DIVLTQSPAIMSASPGEKVTMTCSASSSISYMYWYQQKPGTSPKRWIYDTSKLASGVPARFSGSGSGTSYSLTISSMEAEDAATYYCHQRSSWTFGGGTKLEIK | 4.5 | 0.001 | 220000 | 6.1 | 0.0012 | 190000 | 4.5 | 6.1 |  |  |  |  |  |  | 
2 | h6E7 (6E7.L4H1e)×38E4v1 TDB (bispecific antibody, V domains shown) VH 1: EVQLVQSGAEVKKPGASVKVSCKASGYSFTDYYMHWVRQAPGQGLEWIGRINPYNGAAFYSQNFKDRVTLTVDTSTSTAYLELSSLRSEDTAVYYCAIERGADLEGYAMDYWGQGTLVTVSS VL 1: DIQMTQSPSSLSASVGDRVTITCRASQSVSTSSYNYMHWYQQKPGKPPKLLIKYASNLESGVPSRFSGSGSGTDFTLTISSLQPEDFATYYCQHSWEIPLTFGQGTKVEIK VH 2: EVQLVQSGAEVKKPGASVKVSCKASGFTFTSYYIHWVRQAPGQGLEWIGWIYPENDNTKYNEKFKDRVTITADTSTSTAYLELSSLRSEDTAVYYCARDGYSRYYFDYWGQGTLVTVSS VL 2: DIVMTQSPDSLAVSLGERATINCKSSQSLLNSRTRKNYLAWYQQKPGQSPKLLIYWTSTRKSGVPDRFSGSGSGTDFTLTISSLQAEDVAVYYCKQSFILRTFGQGTKVEIK |  |  |  |  |  |  |  |  |  |  |  |  |  |  | EC50 for killing target cells (EOL-1) [5]: 9.1 ng/mL; EC50 for killing target cells (THP-1) [5]: 5.4 ng/mL; EC50 of killing of EOL-1 (other donors) [5]: 7.4 ng/mL; EC50 of killing of EOL-1 target cells by cynomolgus pan-T cells [5]: ~5 ng/mL; EC50 of killing of HL-60 (other donors) [5]: 95.6 ng/mL; Cell killing EC50 (EOL-1 cells, human CD8+ T cells) [6]: 14 ng/mL; average killing EC50, EOL-1 (n = 5) [7]: 4.1 ng/mL; average killing EC50, HL-60 (n = 2) [7]: 104 ng/mL; average killing EC50, ML-2 [7]: 2.5 ng/mL; average killing EC50, Molm-13 (lowest expressor of CLL-1) [7]: 23 ng/mL; average killing EC50, NOMO-1 [7]: 12.2 ng/mL; average killing EC50, PL-21 [7]: 5.9 ng/mL; average killing EC50, THP-1 (n = 3) [7]: 3.6 ng/mL; average killing EC50, U937 [7]: 2.1 ng/mL; average killing EC50, human autologous CD14+ (n = 3) [7]: 2.8 ng/ml
3 | 6E7.L4H1e (antibody, V domains shown, humanized, assessed in the form of an IgG; also called humanized 6E7.L4H1e; h6E7) VH: EVQLVQSGAEVKKPGASVKVSCKASGYSFTDYYMHWVRQAPGQGLEWIGRINPYNGAAFYSQNFKDRVTLTVDTSTSTAYLELSSLRSEDTAVYYCAIERGADLEGYAMDYWGQGTLVTVSS VL: DIQMTQSPSSLSASVGDRVTITCRASQSVSTSSYNYMHWYQQKPGKPPKLLIKYASNLESGVPSRFSGSGSGTDFTLTISSLQPEDFATYYCQHSWEIPLTFGQGTKVEIK |  |  |  |  |  |  | 1.1 | 2.2 | 1.08 | 0.000984 | 910000 | 2.26 | 0.00181 | 804000 | Kd [8]: 0.25 nM and 0.29 nM; Kd [9]: 0.6 nM and 0.34 nM; Kd [10]: 0.68 nM and 0.35 nM; Kd [11]: 0.622 nM; koff [11]: 0.000512 s⁻¹; kon [11]: 824000 M⁻¹ s⁻¹; Kd [12]: 0.317 nM; koff [12]: 0.000234 s⁻¹; kon [12]: 739000 M⁻¹ s⁻¹

Further binders by falling Kd [3], results first:

Row | Kd [1] [nM] | koff [1] [s⁻¹] | kon [1] [M⁻¹ s⁻¹] | Kd [2] [nM] | koff [2] [s⁻¹] | kon [2] [M⁻¹ s⁻¹] | Kd [3] [nM] | Kd [4] [nM] | Kd [13] [nM] | koff [13] [s⁻¹] | kon [13] [M⁻¹ s⁻¹] | Kd [14] [nM] | koff [14] [s⁻¹] | kon [14] [M⁻¹ s⁻¹] | Binder | also measured
4 |  |  |  |  |  |  | 113 | 48.7 | 113 | 0.0344 | 304000 | 48.7 | 0.00869 | 178000 | 6E7.L4H1eD54 (antibody, V domains shown, IgG; also called h6E7D; H6E7.L4H1D54) VH: EVQLVQSGAEVKKPGASVKVSCKASGYSFTDYYMHWVRQAPGQGLEWIGRINPYDGAAFYSQNFKDRVTLTVDTSTSTAYLELSSLRSEDTAVYYCAIERGADLEGYAMDYWGQGTLVTVSS VL: DIQMTQSPSSLSASVGDRVTITCRASQSVSTSSYNYMHWYQQKPGKPPKLLIKYASNLESGVPSRFSGSGSGTDFTLTISSLQPEDFATYYCQHSWEIPLTFGQGTKVEIK | 
5 | 18 | 0.0095 | 500000 | 0.3 | 0.00023 | 670000 | 18 | 0.3 |  |  |  |  |  |  | ch28H12 (antibody, V domains shown, chimeric version of m28H12, human IgG; also called chimeric 28H12) VH: QVQLQQSGAELVKPGASVKLSCTASGFNIKDTYMHWVKQRPEQGLEWIGRIDPANGDTDYDPKFQGKATVTADTSSNTAYLQLSSLTSEDTAVYYCTISGPPYYVMDYWGQGTSVTVSS VL: DIQMTQSPASLAVSLGQRATISCRASQSVSSSSYSYMHWYQQKPGQPPKLLIKYASNLESGVPARFSGRGSGTDFTLNIHPVEEEDTATYYCQHSWEIPYTFGGGTRLEIK | 
